Consider two molecules from article PMC6995596, “The Plasma Factor XIII Heterotetrameric Complex Structure: Unexpected Unequal Pairing within a Symmetric Complex” (Biomolecules, 2019).

Assay [1] has as its target T1, recombinant FXIII-B (coagulation factor XIII B subunit) (human, UniProt P05160 21-661).
T1 chain: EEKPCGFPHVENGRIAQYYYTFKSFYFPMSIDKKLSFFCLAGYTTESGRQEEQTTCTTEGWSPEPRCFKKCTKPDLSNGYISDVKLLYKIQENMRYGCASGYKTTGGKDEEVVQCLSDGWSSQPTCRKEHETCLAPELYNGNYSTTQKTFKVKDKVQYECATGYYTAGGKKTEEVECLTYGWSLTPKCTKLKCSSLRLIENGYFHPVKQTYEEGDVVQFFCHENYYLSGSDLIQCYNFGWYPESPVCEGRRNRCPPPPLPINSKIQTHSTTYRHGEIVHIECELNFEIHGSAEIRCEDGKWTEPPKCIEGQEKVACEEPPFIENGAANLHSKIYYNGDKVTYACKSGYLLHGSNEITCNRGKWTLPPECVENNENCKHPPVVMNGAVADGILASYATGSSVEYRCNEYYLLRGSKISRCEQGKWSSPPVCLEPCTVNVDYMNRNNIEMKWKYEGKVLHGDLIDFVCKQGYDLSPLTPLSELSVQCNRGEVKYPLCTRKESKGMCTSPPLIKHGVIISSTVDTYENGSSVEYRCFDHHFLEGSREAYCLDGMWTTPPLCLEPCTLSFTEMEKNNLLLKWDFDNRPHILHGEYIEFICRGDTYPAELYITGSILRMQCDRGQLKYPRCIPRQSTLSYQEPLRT
The assay is described as follows: ITC; event 2: M1A1 + A1 ↔ M1A2 (second site). A general note: ITC needs no label: the signal is the heat of the interaction.

Assay [2] concerns the target recombinant FXIII-A2 (coagulation factor XIII A subunit dimer) (UniProt P00488 2-732, zymogen dimer with activation peptide retained (paper residues 1-37 = entry 2-38; paper numbering = entry minus 1); initiator Met removed; limits follow the paper's domain boundaries (1-731) and PDB 1). The assay can be described thus: ITC; 2.5 µM rFXIII-A2 in the cell, 25 µM rFXIII-B in the syringe; MicroCal200; one set of binding sites fitted in Origin, stepwise model FS ↔ MA + A1 ↔ MA2 fitted in Affinimeter. The settings on record: both partners purified.

B1: recombinant FXIII-A2 (coagulation factor XIII A subunit dimer) (natural protein)
chain: SETSRTAFGGRRAVPPNNSNAAEDDLPTVELQGVVPRGVNLQEFLNVTSVHLFKERWDTNKVDHHTDKYENNKLIVRRGQSFYVQIDFSRPYDPRRDLFRVEYVIGRYPQENKGTYIPVPIVSELQSGKWGAKIVMREDRSVRLSIQSSPKCIVGKFRMYVAVWTPYGVLRTSRNPETDTYILFNPWCEDDAVYLDNEKEREEYVLNDIGVIFYGEVNDIKTRSWSYGQFEDGILDTCLYVMDRAQMDLSGRGNPIKVSRVGSAMVNAKDDEGVLVGSWDNIYAYGVPPSAWTGSVDILLEYRSSENPVRYGQCWVFAGVFNTFLRCLGIPARIVTNYFSAHDNDANLQMDIFLEEDGNVNSKLTKDSVWNYHCWNEAWMTRPDLPVGFGGWQAVDSTPQENSDGMYRCGPASVQAIKHGHVCFQFDAPFVFAEVNSDLIYITAKKDGTHVVENVDATHIGKLIVTKQIGGDGMMDITDTYKFQEGQEEERLALETALMYGAKKPLNTEGVMKSRSNVDMDFEVENAVLGKDFKLSITFRNNSHNRYTITAYLSANITFYTGVPKAEFKKETFDVTLEPLSFKKEAVLIQAGEYMGQLLEQASLHFFVTARINETRDVLAKQKSTVLTIPEIIIKVRGTQVVGSDMTVTVEFTNPLKETLRNVWVHLDGPGVTRPMKKMFREIRPNSTVQWEEVCRPWVSGHRKLIASMSSDSLRHVYGELDVQIQRRPSM
modifications: zymogen dimer with activation peptide retained (paper residues 1-37 = entry 2-38; paper numbering = entry minus 1); initiator Met removed; limits follow the paper's domain boundaries (1-731) and PDB 1F13; any residual tag residues not stated
Regarding B1, in assay [1], the dissociation constant (Kd) (as a rule, the free concentration of one partner at which half of the binding sites on the other are occupied at equilibrium, for simple one-to-one binding) is 4.36 µM.

B2: recombinant FXIII-B (coagulation factor XIII B subunit) (natural protein, human, UniProt P05160 21-661, looked up)
chain: EEKPCGFPHVENGRIAQYYYTFKSFYFPMSIDKKLSFFCLAGYTTESGRQEEQTTCTTEGWSPEPRCFKKCTKPDLSNGYISDVKLLYKIQENMRYGCASGYKTTGGKDEEVVQCLSDGWSSQPTCRKEHETCLAPELYNGNYSTTQKTFKVKDKVQYECATGYYTAGGKKTEEVECLTYGWSLTPKCTKLKCSSLRLIENGYFHPVKQTYEEGDVVQFFCHENYYLSGSDLIQCYNFGWYPESPVCEGRRNRCPPPPLPINSKIQTHSTTYRHGEIVHIECELNFEIHGSAEIRCEDGKWTEPPKCIEGQEKVACEEPPFIENGAANLHSKIYYNGDKVTYACKSGYLLHGSNEITCNRGKWTLPPECVENNENCKHPPVVMNGAVADGILASYATGSSVEYRCNEYYLLRGSKISRCEQGKWSSPPVCLEPCTVNVDYMNRNNIEMKWKYEGKVLHGDLIDFVCKQGYDLSPLTPLSELSVQCNRGEVKYPLCTRKESKGMCTSPPLIKHGVIISSTVDTYENGSSVEYRCFDHHFLEGSREAYCLDGMWTTPPLCLEPCTLSFTEMEKNNLLLKWDFDNRPHILHGEYIEFICRGDTYPAELYITGSILRMQCDRGQLKYPRCIPRQSTLSYQEPLRT
notes: coagulation factor XIII B subunit, human cDNA in the pReciever-M01 mammalian expression vector; secreted protein; the stepwise ITC model treats the syringe species as single FXIII-B units; also called rFXIII-B; rFXIII-B2
B2: in assay [2], the “KD of the first binding event (sequential two-step model)” value is 0.0015 µM, the “KD of the second binding event (MA↔MA2)” value stood at 4.3 µM, the “dH of the first binding event (sequential two-step model)” value was -54.1 kcal/mol and the “dH of the second binding event (MA↔MA2)” value was -86 kcal/mol.
